From the DeepSol protein solubility set

Assay: soluble on expression in E. coli; label from the status in PepcDB or PDB records
With “MGSDKIHHHHHHMPSETRLPNFIRTLIFALSFIFLNACSEQTAQTVTLQGETMGTTYTVKYLSNNRDKLPSPAEIQKRIDDALKEVNRQMSTYQPDSEISRFNQHTAGKPLRISSDFAHVTAEAVHLNRLTHGALDVTVGPLVNLWGFGPDKSVTREPSPEQIKQAASYTGIDKIILKQGKDYASLSKTHPKAYLDLSSIAKGFGVDKVAGELEKYGIQNYLVEIGGELHGKGKNARGEPWRIGIEQPNIVQGGNTQIIVPLNNRSLATSGDYRIFHVDKSGKRLSHIINPNNKRPISHNLASISVVADSAMTADGLSTGLFVLGETEALKLAEREKLAVFLIVRDKGGYRTAMSSEFEKLLR” the “soluble on expression in E. coli” value was “not soluble”.
In the case of “MPPLRQFLNRLLALTIRMQNVIFERFELLLSQQIETAIANGIFEAGVETLRAERFTIESCESVYTHPDTGSVTNYLKVEQVQRNNIRTAVEMLEFAAKYQGQLMVNQKSSNAAVSIPTHSIFDCDGGVVPRVLLVRPQKETRVPVEQLESSTWQQVSAEEFVTAWSREVDELPRFTTDYLHLVTGILLPIWKILPQKNSRVFRLQTSDGQKILGRVVHASDIQTVTEQLGLKNKLEHHHHHH”, the “soluble on expression in E. coli” value is reported as “soluble”.
In the case of “MNAEIASEIVAEIPLWSQELPDTQEIIASLISSNLFPLIYTEQDYLEIANASAGLYISDIIHCLTDIRKNHDLGNSSEIAKLLLAKKIQLLNRLYDIEFLPPPKVQLGGLELMQQSFKKFKRLLTPRAKQYNLRVPKGIMLEHHHHHH”, the “soluble on expression in E. coli” value is reported as “not soluble”.
With “MAHHHHHHMFSPVYEDVSGLFGHPMPISGFGPSTELQFPQTSYMTTTTNAPQTPTQQQQQQLAGRATVYSLVDASGVQLHRQAAPPQQIPMSSVPFGAFDGASIVPYEVFMQHQQQQQLAAAGKPTAVHAQDGVKYYLSSSTGAPVMASAGPAATTQANIMQMQQHGGTLYTLESNGTTTALTSTPPAGGLFSGAAAANGAPPSGEYPFYAAATGFLSSGPLGMAPATVGSASVTPYAIQGHMPSASPRARGAVNRSPAATIAGNQHHSNSGNNSSSASTRRENQATLHEM” the “soluble on expression in E. coli” value was “not soluble”.
With “MIRPVDFQGFVVKGVESVQNVSQTLNQQTLVQQALSQHLLHQIQREQSSVKESNTAERAEVRTSTERRQRGFPQTRTHSSLKKKKTSIKEENKGLFMDVRTLEHHHHHH” the “soluble on expression in E. coli” value was “not soluble”.
For “MGSDKIHHHHHHENLYFQGMLIEIPNVFSKQEVSHLREQLDARRWIDGNQTSGAMATTRKRNQQLDKDDPVAVALGQQIMDRLLAHPQFVSAALPLQFYPPLFNRYQGGETFGYHIDNAIRSTPDGMIRTDLSATLFLSEPENYQGGELVIQDTYGQQSIKLSAGSLVLYPSSSLHQVTPVLSGERTAAFMWLQSMVRDEGQRRLLFQLDQSIQSLTAQTAAEQELFNLSGVYHNLLRRWSEL”, the “soluble on expression in E. coli” value was “soluble”.
With “PTSSTTATLVMGDALAVALLKARGFTAEDFALSHPGGALGRKLLLRVNDIMHTGDEIPHVKKTASLRDALLEVTRKNLGMTVICDDNMMIEGIFTDGDLRRVFDMGVDVRRLSIADVMTPGGIRVRPGILAVEALNLMQSRHITSVMVADGDHLLGVLHMHDLLRA” the “soluble on expression in E. coli” value was “not soluble”.
In the case of “MLTEQQRRELDWEKTDGLMPVIVQHAVSGEVLMLGYMNPEALDKTIESGKVTFFSRTKQRLWTKGETSGNFLNVVNIAPDCDNDTLLVLANPIGPTCHKGTSSCFGDTAHQWLFLYQLEQLLAERKSADPETSYTAKLYASGTKRIAQKVGEEGVETALAATVHDRFELTNEASDLMYHLLVLLQDQDLDLTTVIENLRKRHQ”, the “soluble on expression in E. coli” value is reported as “not soluble”.
For “GMTTWKELTDNNPAHSENYAQRWRNLAAAGNDIYGEARLIDAMAPRGAKILDAGCGQGRIGGYLSKQGHDVLGTDLDPILIDYAKQDFPEARWVVGDLSVDQISETDFDLIVSAGNVMGFLAEDGREPALANIHRALGADGRAVIGFGAGRGWVFGDFLEVAERVGLELENAFESWDLKPFVQGSEFLVAVFTKK”, the “soluble on expression in E. coli” value was “soluble”.
For “MKSGEKDYSVKEAMIFSQRIAQLSKALWKCVEKDWQQWIKPYDLNINEHHILTIAYHLKGASISEIAKFGVMHVSTAFNFSKKLEERGYLVFSKKEDDKRNTYIEITDKGEELLLRLMEEYDPENNSVFNGALALRNFYGKFPENIELIAILRNIYGQDFIDIFEKSLEDIEENFTESDQKLVKK”, the “soluble on expression in E. coli” value was “not soluble”.
In the case of “DIKMTQSPSSMSASLGESVTITCKASRDIKSYLSWYQQKPWKSPKTLIYYATSLADGVPSRFSGSGSGQDYSLTISSLESDDTATYYCLQHGESPFTFGSGTKLELKRADAAPTVSIFPPSSEQLTSGGASVVCFLNNFYPKDINVKWKIDGSERQNGVLNSWTDQDSKDSTYSMSSTLTLTKDEYERHNSYTCEATHKTSTSPIVKSFN”, the “soluble on expression in E. coli” value is reported as “soluble”.
In the case of “MTGKLYGNKDNFRTQKVLIAAKLANKTVTLAGDAAPADKFPLGVTPAFEGDALLFGAESIGLHLTGTSANAETVQWLQFAEGYLLPAVLGYVLPSVSAANFDKKTVEQYKNELNGQLQVLDRVLVKKTYLVGERLSLADVSVALDLLPAFQYVLDANARKSIVNVTRWFRTVVNQPAVKEVLGEVSLASSVAQFNQAKFTELSAKVAKSAPKAEKPKKEAKPAAAAAQPEDDEPKEEKSKDPFQDMPKGTFVLDNFKRSYSNEDTATKAIPHFWENFDADNWSIWKCEYKYPEDLTLAFMSCNLINGMYQRLEKLKKNAFASMILFGTDNNSTISGIWVWKGDKLAFELSPDWQVDYESYTWTKLDAKSDATKKEVNEYLMWEGDFGGKKFNQGKIFK”, the “soluble on expression in E. coli” value is reported as “soluble”.
With “MGSDKIHHHHHHMINIGLTGWGDHYSLYEDLERQTDKLKTYAGHFPVVELDATYYAIQPERNILKWIKETPDTFEFVVKIHQALTLHADYKTFADTRQELFDQFKNMLEPLHTQKKLAMVLVQFPPWFDCNAQNIKYILYVRQQLQAFPMCVEFRHQSWFSDAFKEQTLAFLTEHQIIHAVVDEPQVKDGSVPLVNRITNEIAFVRYHGRNHYGWTKKDMSDQEWRDVRYLYDYNEQELIDLAQKAQILAQKAKKVYVIFNNNSGGHAANNAKTYQRLLNIEYEGLAPQQLKLF” the “soluble on expression in E. coli” value was “not soluble”.
With “MGSDKIHHHHHHIRMKINLGVVGAGIASRELHLPALRKLSDLFTVVAVNSRTRKKAEEFAGIVGGDVRVFDSYEEMLSSDSVDAVVLAVPISLNPKMIIAARRANKPVICEKPVAASVKEAVPLLRLPGSSPVYIAENYRHIEVYEKAAELLKEGRIGIPLAFSWLKWVDFGQDNKYVQTKWRQTPEHVGGFISDGGVHDVAALRKTLGDVEEVSGFTKKSLDYLGAENCVVFNMTLENGVIGNYSVVYGAASPLNRFEIVGTDGLMLVDKDGATIEIFAADREKIFVNKTDGFIEEFRDFYNVVEGEKNSLGTVGEALLDLATIEAGLVSAVEKRVVAVDSLLEES” the “soluble on expression in E. coli” value was “not soluble”.
With “MGSDKIHHHHHHMLEFLSQQKPKILIIGDFMVDNYTWCDCSRISPEAPVLIAKTLKEDKRLGGAANVYANLKSLGADVFALGVVGDDESGKFLQENLKGEFLIQKGRKTPFKNRIMAHNQQVLRLDEEDISEILLENELIALFDEKIKDFKAVVLSDYAKGVLTPKVCKAVIEKAKVLNIPVLVDPKGSDFNKYSGATLLTPNKKEALEALKFENLEGENLEKGIKKLKEDFSLRYSIITLSEAGIALFDEGLKIAPAKALEVYDVTGAGDSVIAVLAFCLANEIEIFKACELANEAAAVVVSKIGSVSVSFDEIKSFKRVDFEKKIKSKEELLVLLKQNNKKIVFTNGCFDIVHFGHIKYLDKAKRLGDVLIVGLNSDASVKRLKGESRPVNSEFQRACMLAAFYFVDFVVIFDEDTPLELISFLKPDILVKGADYKDKLVVGADIVSRVELIDFEEGFSTSKIIEKIKDKK” the “soluble on expression in E. coli” value was “not soluble”.
With “MNTVRSEKDSMGAIDVPADKLWGAQTQRSLEHFRISTEKMPTSLIHALALTKRAAAKVNEDLGLLSEEKASAIRQAADEVLAGQHDDEFPLAIWQTGSGTQSNMNMNEVLANRASELLGGVRGMERKVHPNDDVNKSQSSNDVFPTAMHVAALLALRKQLIPQLKTLTQTLNEKSRAFADIVKIGRTHLQDATPLTLGQEISGWVAMLEHNLKHIEYSLPHVAELALGGTAVGTGLNTHPEYARRVADELAVITCAPFVTAPNKFEALATCDALVQAHGALKGLAASLMKIANDVRWLASGPRCGIGEISIPENEPGSSIMPGKVNPTQCEALTMLCCQVMGNDVAINMGGASGNFELNVFRPMVIHNFLQSVRLLADGMESFNKHCAVGIEPNRERINQLLNESLMLVTALNTHIGYDKAAEIAKKAHKEGLTLKAAALALGYLSEAEFDSWVRPEQMVGSMKAGRHHHHH” the “soluble on expression in E. coli” value was “soluble”.
